Here are results for 9 molecules from patent publication US20250034594A1, “RNA-GUIDED GENOME RECOMBINEERING AT KILOBASE SCALE” (THE BOARD OF TRUSTEES OF THE LELAND STANFORD JUNIOR …, priority 2021, published 2025).

Common to all, as to assay type: cell-based
In assay [1] the test system is gene editing with Cas9. The assay is described as follows: Screen of 322 new SSAP proteins, gene editing activity with Cas9 (Table 5). Details: Cas9 with SSAP activity: scale not given here. An outline of the steps:
(§1)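 Editing screen of 322 newly identified, synthesized SSAPs, each co-used with Cas9 and with dCas9.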

Assay [2] has as its system gene editing with dCas9. Briefly: Screen of 322 new SSAP proteins, gene editing activity with dCas9 (Table 5). Also on record: dCas9 with SSAP activity: scale not given here. An outline of the steps:
as §1

For assay [3], the system named is gene editing with Cas9 and dCas9. The assay is described as follows: Screen of 322 new SSAP proteins, activity across all experiments (Cas9 and dCas9, Table 5). Details: scale not given here. The method, boiled down: as §1

B1: SSAP_166: SEQ ID NO: 335; Blautia sp. OF03-15BH (protein, listed as Blautia sp.)
chain: NVKEELAQKAEITQKEVKLKKSMSISDMIRALQPEIKKALPSVVTPERFIRMALSALNTTPKLAECSQISVLAALMNAAQLGLEPNTPMGQAYLIPFNNKGKMECQFQIGYKGLLELVYRNPAIQIIQAQTVYENDYFEYELGLNSRLIHRPELEDRGEIRLFYGLFKMVNGGYGFEVMSRQEMDQYAARYSKSFASGFSPWENNYEDMAKKTMIKRVLKYAPVKIETARALINDESIKLHLSEDMSEVENETVVDGQAEEKAA
As to B1, in assay [1], the “Cas9 with SSAP activity” value is given as −1.338 and the “Cas9 with SSAP activity (normalized)” value is −0.432. In assay [2], the “dCas9 with SSAP activity” value was −5.849 and the “dCas9 with SSAP activity (normalized)” value was −0.934. Further, the “Activity across all experiments” value in assay [3] is −3.593.

B2: SSAP_112: SEQ ID NO: 281; Bacillus sp. UNC322MFChir4.1 (protein, listed as Bacillus sp.)
chain: ATNKDVKNQLANRKENKPATPEQKVEAYMTAMAPRFAEVLPKHMSMDRMSRIALTTIRTNPKLLECSVPSLMGAVMQAVQLGLEPGLLGHCYILPYKSEATFIIGYKGMIDLARRSGHIQSIYAHAVYENDEFDYELGLHPKLTHKPSFGERGEFIGAYAVAHFKDGGHQMEFMPKSEIEKRRSRSASGNSSYSPWKSDYEEMAKKTVVRYMFKYLPISIEVQSQAQHDEVVRKDITEEPEFIEMDSIEVAEASEGDGQKEFVIEE
On to B2, for which, in assay [1], the “Cas9 with SSAP activity” value is reported as −1.038 and the “Cas9 with SSAP activity (normalized)” value is −0.628. Further, in assay [2], the “dCas9 with SSAP activity” value is −6.027 and the “dCas9 with SSAP activity (normalized)” value is recorded as −0.986. Moreover, the “Activity across all experiments” value in assay [3] is reported as −3.533.

B3: SSAP_294: SEQ ID NO: 463; Parageobacillus thermoglucosidasius (protein, listed as Parageobacillus thermoglucosidasius)
chain: AKQADLKNKLANKNSTNPTAYLKNLVYAPTVQQKFKEVLKEKAAHFLTSLISLVDSSPDLQKCNPMTIIASAMKAATLELPIDKNLGYAWIVPYKNVATFQIGYKGYIQLALRTGLYRSINVIEVYEGELRKWNRLTEELDIDEGARKSDHVIGYAGYFELTNGFIKRVYWSKEDIERHRKKFAKSDFGWENNYDAMAKKTVLRNMLSKWGILSIDMQRAYVNDIDDPEQTKEVIDVEWSEIIEEANVANSPEQQEIVFEQ
For the molecule B3, in assay [1], the “Cas9 with SSAP activity” value is recorded as −7.102 and the “Cas9 with SSAP activity (normalized)” value is given as −2.102. For the same molecule, in assay [2], the “dCas9 with SSAP activity” value is reported as −5.929 and the “dCas9 with SSAP activity (normalized)” value is −1.096. For the same molecule, in assay [3], the “Activity across all experiments” value is −6.515.

B4: SSAP_188: SEQ ID NO: 357; Propionibacterium freudenreichii (protein, listed as Propionibacterium freudenreichii)
chain: TQQMPIKAQGEPTKELQQKAAVDRFNATLHQMQNEIARALPKHMTGDRFVRIVLTEVRKNPTLALCDPLTMFGSLLTAAALGLEPGLNGECWLVPRKNHGTLEAQLQVGYRGVVKLFWQNPAATYLDTGYVCERDEFRFAKGLNPILEHTPAEGDRGKVVRYYAVAGLNTGARVFDVFTPAQIKTLRGGKVGSNGDIPDPEHWMERKTALLQVLKLMPKSTQLAAVPAADGRAHTISDAQQIFGGVDPTTGEVLDAEPVEDGAA
As to B4, in assay [1], the “Cas9 with SSAP activity” value is −6.279 and the “Cas9 with SSAP activity (normalized)” value is −0.994. Moreover, in assay [2], the “dCas9 with SSAP activity” value is −5.957 and the “dCas9 with SSAP activity (normalized)” value is recorded as −0.867. Also, the “Activity across all experiments” value in assay [3] is listed as −6.118.

B5: SSAP_52: SEQ ID NO: 221 (protein)
chain: TIMDLLNDPKMKSQIQRALPNGMSAERIARIALTALRMNPQLQECSPQSFAAALMTSAQLGLEPNTPLGHAWLIPRKNHGKMEVQFELGYKGMLDLVRRSGMITAIFAEEVREKDEFEFEYGTNPYLKHKPYLGGDRGKVLFYYAVATFKDGGYAFKVMSIPEIEEARKLSQSANSPYSPWNRFYDEMAKKTVLKRLCKYLPLSIEVQRNLAQDETIRTQIEADDILDLPNENEFEVVEVEEIPGEEEKEEAKEGPFPNKALRESPTPLT
For B5, in assay [1], the “Cas9 with SSAP activity” value is −0.544 and the “Cas9 with SSAP activity (normalized)” value is given as −0.573. Also, in assay [2], the “dCas9 with SSAP activity” value was determined as 0.163 and the “dCas9 with SSAP activity (normalized)” value is reported as 0.148. In assay [3], the “Activity across all experiments” value is −0.190.

B6: SSAP_306: SEQ ID NO: 475; Paenibacillus gorillae (protein, listed as Paenibacillus gorillae)
chain: LEAKHDALPSGFNAVRFVQNCKAYLPEVRNFERFNPDEIALQFLKGAILGLDFLAKECHVITEGSAARFQTDYKGEMKLAMKHSVRPLLNIYAKNVREGDVFRESVVEGRPVVSFDPLPFNNSKIIGSFAVAQFNDGGMDYESMSSTEIESIRTHYGKNPGSDTWEKSQGEMYKRTALRRLCKTIEIDFDAEQRLAFDAGSSFEFNREPRPQQQSPLNLESEVLTDEVEQG
With B6, in assay [1], the “Cas9 with SSAP activity” value was −2.932 and the “Cas9 with SSAP activity (normalized)” value is given as −2.350. In addition, in assay [2], the “dCas9 with SSAP activity” value is given as −5.884 and the “dCas9 with SSAP activity (normalized)” value was −0.905. Moreover, in assay [3], the “Activity across all experiments” value was −4.408.

B7: SSAP_300: SEQ ID NO: 469; Lactobacillus sp. (protein, listed as Lactobacillus sp.)
chain: NSLSGALNSRNQAGSPTSMIKNLMRSDSIKNRFDEVMGAKAPQFMASITNLVNSNQDLQHVDAMSVVASAMVAATLDLPIDPNLGYMYIVPYRGQAQPQMGYKGYIQLALRTGQYKHINALPVYDDEVKSWNPLTEELEYESSGTSHDNQTPAGYVGYFQLINGFEKTTYWTYDQINSHRQKFSKMSSKTDPTGVWKSNFDAMALKTVLRNLISKWGIMSIEMQQAFVKDERPQEFDHETGEIQDVQEVEAEEENVAPETQGSTDKKEE
Consider B7, for which, in assay [1], the “Cas9 with SSAP activity” value is listed as −4.466 and the “Cas9 with SSAP activity (normalized)” value is reported as −0.701. In assay [2], the “dCas9 with SSAP activity” value is reported as −5.916 and the “dCas9 with SSAP activity (normalized)” value is −1.175. Besides, the “Activity across all experiments” value in assay [3] is listed as −5.191.

B8: SSAP_228: SEQ ID NO: 397; Weissella koreensis (protein, listed as Weissella koreensis)
chain: ANELVKQLKSEKVAAQFETTAGKNAAAFASEVAISVMGNKALENASLSSVVVEATKASALGLSLLPTVGEAYLVPYKGQAQFQLGYKGLVQLAMRSGQMKSFGTVKVYEGEHPRWDKYSQELHTDGDETGEVVGYYAQFTLINGFKKADYWTKSAVEEHRSRFSKSKSGPWSTDFDAMAQKTVLKSILQYAPKSSEMTRAMASEDMNGDISEGTAKPIDITPETETPKVEEANQNQQIDTNEMVDEIKEYAKETNEAPKEQTVSAADEFFK
In the case of B8, in assay [1], the “Cas9 with SSAP activity” value is recorded as −4.425 and the “Cas9 with SSAP activity (normalized)” value is reported as −0.688. In addition, in assay [2], the “dCas9 with SSAP activity” value was −5.964 and the “dCas9 with SSAP activity (normalized)” value is −1.008. Besides, the “Activity across all experiments” value in assay [3] is reported as −5.195.

B9: SSAP_243: SEQ ID NO: 412; Nocardia puris (protein, listed as Nocardia puris)
chain: AESISSEVARQASPLAVVARYRSELAGSLPAAVRHDVDRWLMVAEMAVRRSPDLMEIVRRDQGASLMRALIECARLGHEPGSPEFYLIPRGGIVSGEESYRGIIKRILNSGEYQRVVARVVHERDRFSFDPRIDEIPDHRPAEGERGAPARAYAFAVRWDGTPSTVGEATPERIIAAKAKARGVDRKDSPWNSPTGVMYRKTAIRELASYVHTSAEPRPRPAAPTEPPAVDEVSTVYDAEVIDEVDVLDITAEPTA
With B9, in assay [1], the “Cas9 with SSAP activity” value was −1.310 and the “Cas9 with SSAP activity (normalized)” value is reported as −0.511. For the same molecule, in assay [2], the “dCas9 with SSAP activity” value is −5.989 and the “dCas9 with SSAP activity (normalized)” value is on record as −1.036. Besides, the “Activity across all experiments” value in assay [3] is −3.650.
